Source: patent US20220023399A1, “BLOOD COMPONENT POTENTIATION OF LYTIC PROTEIN ANTI-BACTERIAL ACTIVITY AND METHODS AND USES THEREOF” (priority 2017, published 2022)

Experiments:
[1] = system: S. aureus (strain not given); test: MIC analysis of various lysins, chimeric lysins and antibiotics in MHB and human serum; format: cell-based; conditions: Table 14 (Example 2); for Fold decrease in MIC: human serum vs MHB
Method: To further evaluate the binding domain relevance to the serum component effect, various chimerics were constructed by replacing or swapping out one binding domain for another. Chimeric lysins having the Sal1 CHAP catalytic domain with ClyS binding domain, PlySs2 (CF-301) binding domain, or lysostaphin binding domain were assayed for MIC using MHB versus human serum. the results are depicted below in TABLE 14.

[2] = system: S. aureus (strain not given); test: as above; format: cell-based; conditions: Table 2; for Fold decrease in MIC: human serum vs MHB
[3] = system: staphylococci (strain not given); test: Checkerboard analysis of PlySs2/CF-301 with AMPs, antimicrobial proteins and albumins in heat-inactivated human serum; format: cell-based, S. aureus; conditions: in combination with PlySs2/CF-301
[4] = system: S. aureus strain ATCC 700699; test: Confocal/deconvolution microscopy of cell surface binding; conditions: 0.25×MIC
S. aureus strain MW2 = test: Fluorescence microscopy of binding after preincubation in different serum types; conditions: 0.25×MIC
Method: The effect of preincubation of staphylococci with multiple different serum types and MHB on subsequent labeling with a 0.25×MIC amount of CF-301^RHD was also examined by fluorescence microscopy (FIG. 11).
Fluorescence microscopy: Binding of PlySs2 (CF-301) to the Bacterial Cell Surface in Different Serum Environments. Mid-log phase MRSA strain MW2 was suspended at 1×10^7 CFU/mL in either CAMHB or 100% serum from either human (Sigma-Aldrich), rabbit (Gibco), rat (BioreclamationIVT), or mouse (BioreclamationIVT) sources and incubated for 30 minutes at 37° C. An additional mouse serum sample was also tested, containing 40 mg/mL HSA (Albumin Biosciences). After the preincubation, bacteria were washed with 1× phosphate-buffered saline (PBS) and resuspended in 50 μl of PBS and attached to the surface of a poly-L-lysine-coated cover glass. The cells were washed and treated with CF-301^RHOD (2 μg/mL in PBS) for 10 minutes before washing and counterstaining with DAPI. Slides were mounted in 50% glycerol and 0.1% p-phenylenediamine in PBS, pH 8. Fluorescence microscopy was performed using a Nikon Eclipse E400 microscope, equipped with a Nikon 100×/1.25 oil immersion lens, and a Retiga EXi fast 1394 camera (QImaging). QCapture Pro version 5.1.1.14 software (QImaging) was used for image capture and processing.

B1: ClyS: chimeric lysin active against Staphylococci, without SH3-type binding domain; SEQ ID NO:4 (protein)
chain: METLKQAESYIKSKVNTGTDFDGLYGYQCMDLAVDYIYHVTDGKIRMWGNAKDAINNSFGGTATVYKNYPAFRPKYGDVVVWTTGNFATYGHIAIVTNPDPYGDLQYVTVLEQNWNGNGIYKTELATIRTHDYTGITHFIRPNFATESSVKKKDTKKKPKPSNRDGLNKDKIVYDRTNINYNMVLQGKSASKITVGSKAPYNLKWSKGAYFNAKIDGLGATSATRYGDNRTNYRFDVGQAVYAPGTLIYVFEIIDGWCRIYWNNHNEWIWHERLIVKEVF
modifications: Staphlyococcus
Minimal inhibitory concentration, MHB [1]: 8 µg/mL
Fold decrease in MIC [1]: 2
Minimal inhibitory concentration, Human serum [1]: 4 µg/mL
Minimal inhibitory concentration, MHB [2]: 8 µg/mL
Fold decrease in MIC [2]: 2
Minimal inhibitory concentration, Human serum [2]: 4 µg/mL

B2: Lactoferrin (Human milk): lactoferrin, human milk (Sigma-Aldrich) (protein, UniProt P02788 20-710, looked up)
Lactotransferrin: GRRRSVQWCAVSQPEATKCFQWQRNMRKVRGPPVSCIKRDSPIQCIQAIAENRADAVTLDGGFIYEAGLAPYKLRPVAAEVYGTERQPRTHYYAVAVVKKGGSFQLNELQGLKSCHTGLRRTAGWNVPIGTLRPFLNWTGPPEPIEAAVARFFSASCVPGADKGQFPNLCRLCAGTGENKCAFSSQEPYFSYSGAFKCLRDGAGDVAFIRESTVFEDLSDEAERDEYELLCPDNTRKPVDKFKDCHLARVPSHAVVARSVNGKEDAIWNLLRQAQEKFGKDKSPKFQLFGSPSGQKDLLFKDSAIGFSRVPPRIDSGLYLGSGYFTAIQNLRKSEEEVAARRARVVWCAVGEQELRKCNQWSGLSEGSVTCSSASTTEDCIALVLKGEADAMSLDGGYVYTAGKCGLVPVLAENYKSQQSSDPDPNCVDRPVEGYLAVAVVRRSDTSLTWNSVKGKKSCHTAVDRTAGWNIPMGLLFNQTGSCKFDEYFSQSCAPGSDPRSNLCALCIGDEQGENKCVPNSNERYYGYTGAFRCLAENAGDVAFVKDVTVLQNTDGNNNEAWAKDLKLADFALLCLDGKRKPVTEARSCHLAMAPNHAVVSRMDKVERLKQVLLHQQAKFGRNGSDCPDKFCLFQSETKNLLFNDNTECLARLHGKTTYEKYLGPQYVAGITNLKKCSTSPLLEACEFLRK
ΣFICavg [3]: ≥1.16

B3: CF-301^RHD: rhodamine-labeled PlySs2 (CF-301) (conjugate)
chain: MTTVNEALNNVRAQVGSGVSVGNGECYALASWYERMISPDATVGLGAGVGWVSGAIGDTISAKNIGSSYNWQANGWTVSTSGPFKAGQIVTLGATPGNPYGHVVIVEAVDGDRLTILEQNYGGKRYPVRNYYSAASYRQQVVHYITPPGTVAQSAPNLAGSRSYRETGTMTVTVDALNVRRAPNTSGEIVAVYKRGESFDYDTVIIDVNGYVWVSYIGGSGKRNYVATGATKDGKRFGNAWGTFK
labeling of the staphylococcal cell wall ([4]; absence of the HSA pretreatment): no labeling was observed
labeling of the staphylococcal cell wall ([4]; cells pretreated with HSA at 40 mg/mL): extensive labeling
labeling of S. aureus strain MW2 (S. aureus strain MW2; mouse serum supplemented with HSA): restore high-level binding and fluorescence
labeling of S. aureus strain MW2 (S. aureus strain MW2; preincubation with human serum or rabbit serum): extensive labeling
labeling of S. aureus strain MW2 (S. aureus strain MW2; preincubation with rat serum, mouse serum or MHB alone): poorly labeled cells

B4: Serum albumin (Rat, from serum): rat serum albumin (protein, UniProt P02770 25-608, looked up)
Albumin: EAHKSEIAHRFKDLGEQHFKGLVLIAFSQYLQKCPYEEHIKLVQEVTDFAKTCVADENAENCDKSIHTLFGDKLCAIPKLRDNYGELADCCAKQEPERNECFLQHKDDNPNLPPFQRPEAEAMCTSFQENPTSFLGHYLHEVARRHPYFYAPELLYYAEKYNEVLTQCCTESDKAACLTPKLDAVKEKALVAAVRQRMKCSSMQRFGERAFKAWAVARMSQRFPNAEFAEITKLATDVTKINKECCHGDLLECADDRAELAKYMCENQATISSKLQACCDKPVLQKSQCLAEIEHDNIPADLPSIAADFVEDKEVCKNYAEAKDVFLGTFLYEYSRRHPDYSVSLLLRLAKKYEATLEKCCAEGDPPACYGTVLAEFQPLVEEPKNLVKTNCELYEKLGEYGFQNAVLVRYTQKAPQVSTPTLVEAARNLGRVGTKCCTLPEAQRLPCVEDYLSAILNRLCVLHEKTPVSEKVTKCCSGSLVERRPCFSALTVDETYVPKEFKAETFTFHSDICTLPDKEKQIKKQTALAELVKHKPKATEDQLKTVMGDFAQFVDKCCKAADKDNCFATEGPNLVARSKEALA
ΣFICavg [3]: ≥1.16

B5: Lysozyme (Human, recombinant): human lysozyme, recombinant expressed in rice (protein, UniProt P61626 19-148, looked up)
Lysozyme C: KVFERCELARTLKRLGMDGYRGISLANWMCLAKWESGYNTRATNYNAGDRSTDYGIFQINSRYWCNDGKTPGAVNACHLSCSALLQDNIADAVACAKRVVRDPQGIRAWVAWRNRCQNRDVRQYVQGCGV
ΣFICavg [3]: ≤0.05

B6: Lysozyme (Human neutrophil derived): lysozyme, human neutrophil-derived (protein, UniProt P61626 19-148, looked up)
Lysozyme C: B5 Lysozyme C
ΣFICavg [3]: ≤0.056

B7: Lactoferrin (Bovine colostrum): lactoferrin, bovine colostrum (Sigma-Aldrich) (protein, UniProt P24627 20-708, looked up)
Lactotransferrin: APRKNVRWCTISQPEWFKCRRWQWRMKKLGAPSITCVRRAFALECIRAIAEKKADAVTLDGGMVFEAGRDPYKLRPVAAEIYGTKESPQTHYYAVAVVKKGSNFQLDQLQGRKSCHTGLGRSAGWIIPMGILRPYLSWTESLEPLQGAVAKFFSASCVPCIDRQAYPNLCQLCKGEGENQCACSSREPYFGYSGAFKCLQDGAGDVAFVKETTVFENLPEKADRDQYELLCLNNSRAPVDAFKECHLAQVPSHAVVARSVDGKEDLIWKLLSKAQEKFGKNKSRSFQLFGSPPGQRDLLFKDSALGFLRIPSKVDSALYLGSRYLTTLKNLRETAEEVKARYTRVVWCAVGPEEQKKCQQWSQQSGQNVTCATASTTDDCIVLVLKGEADALNLDGGYIYTAGKCGLVPVLAENRKSSKHSSLDCVLRPTEGYLAVAVVKKANEGLTWNSLKDKKSCHTAVDRTAGWNIPMGLIVNQTGSCAFDEFFSQSCAPGADPKSRLCALCAGDDQGLDKCVPNSKEKYYGYTGAFRCLAEDVGDVAFVKNDTVWENTNGESTADWAKNLNREDFRLLCLDGTRKPVTEAQSCHLAVAPNHAVVSRSDRAAHVKQVLLHQQALFGKNGKNCPDKFCLFKSETKNLLFNDNTECLAKLGGRPTYEEYLGTEYVTAIANLKKCSTSPLLEACAFLTR
ΣFICavg [3]: ≥1.16

B8: Sal1: anti-staphylococcal lysin, SEQ ID NO:5 (protein)
chain: MAKTQAEINKRLDAYAKGTVDSPYRIKKATSYDPSFGVMEAGAIDADGYYHAQCQDLITDYVLWLTDNKVRTWGNAKDQIKQSYGTGFKIHENKPSTVPKKGWIAVFTSGSYQQWGHIGIVYDGGNTSTFTILEQNWNGYANKKPTKRVDNYYGLTHFIEIPVKAGTTVKKETAKKSASKTPAPKKKATLKVSKNHINYTMDKRGKKPEGMVIHNDAGRSSGQQYENSLANAGYARYANGIAHYYGSEGYVWEAIDAKNQIAWHTGDGTGANSGNFRFAGIEVCQSMSASDAQFLKNEQAVFQFTAEKFKEWGLTPNRKTVRLHMEFVPTACPHRSMVLHTGFNPVTQGRPSQAIMNKLKDYFIKQIKNYMDKGTSSSTVVKDGKTSSASTPATRPVTGSWKKNQYGTWYKPENATFVNGNQPIVTRIGSPFLNAPVGGNLPAGATIVYDEVCIQAGHIWIGYNAYNGNRVYCPVRTCQGVPPNHIPGVAWGVFK
modifications: Staphylococcus
Minimal inhibitory concentration, MHB [1]: 2 µg/mL
Fold decrease in MIC [1]: 32
Minimal inhibitory concentration, Human serum [1]: 0.06 µg/mL
Minimal inhibitory concentration, MHB [2]: 2 µg/mL
Fold decrease in MIC [2]: 32
Minimal inhibitory concentration, Human serum [2]: 0.06 µg/mL
